Data: patent US20260069689A1 (Regeneron, published 2026)
Numbering of substitutions follows the chain as printed.

B1: mAb15170 (antibody, V domains shown)
VH: EVQLVESGGGLVQPGGSLRLSCAATGITVSSNYMSWVRQAPGKGLEWVSLIYSGGSTFYADSVKGRFTISRHNSKNTLYLQMSSLRAEDTAVYYCARDLVDFGMDVWGQGTTVTVSS
VL: DIQLTQSPSSLSASVGDRVTITCRASQGISNYLAWYQQKPGKAPKLLIYAASTLQSGVPSRFSGSGSGTDFTLTISSLQPEDFGTYYCQQLNSDSPTFGQGTKVEIKR
B2: mAb15164 (antibody, V domains shown)
VH: EVQLVESGGGLVQPGGSLRLSCAASGFAVSSNYMTWVRQAPGKGLEWVATIYSGDSTYYADSVKGRFTISRHNSKNTLSLQMNSLRADDTAIYYCARLSGVLSGTYNGAFDIWGQGTMVTVSS
VL: QSALTQPASVSGSPGQSITISCTGTSSDFGNYNIVSWYQQHPGQAPKVMIYEGNKRPSGVSNRFSGSKSGHTASLTISGLQAEDEADYYCSSYAGSSTWVFGGGTKLTVLG
B3: mAb15165 (antibody, V domains shown)
VH: EVQLVESGGGLVQPGGSLRLSCAASGFTVSSNYMSWVRQAPGKGLEWVSAIYSGDSTYYADSVKGRFTISKDNSKNTLYLQMNSLRGEDTAVYYCARLGGALQAYDGAFDYWGQGTLATVSS
VL: B2 VL with N31S, I34L, Q44K, V48L, N62I, H71N
B4: mAb15166 (antibody, V domains shown)
VH: EVQLVESGGGLVQPGGSLRLSCAASGFTVTSNYMSWVRQAPGKGLEWVSAIYSGESTYYADSVKGRFTISRDSSKNTLYLQMNSLRVEDTAVYYCASIHDYSNYVGGFDPWGQGTLVTVSS
VL: B2 VL with T25P, N31S, I34L, Q44K, V48L, N54T, H71N
B5: mAb15163 (antibody, V domains shown)
VH: EVQLVETGGGLIQPGESLRLSCAASGFIVSTNYMNWVRQAPGKGLEWVSVIYRGGSTYYADSVKGRFTISRDNSKNTLFLQMNSLRAEDTAVYYCARGHEDFDYDTPASGAFDIWGQGTMVTVSS
VL: QSALTQPPSASGSPGQSVTISCTGTSSDVGGHNYVSWYQQHPGKAPKVMIYEVSKRPSGVPDRFSGSKSGNTASLTVSGLQAEDEADYYCSSYAGSNKFVFGTGTKVTVLG
B6: mAb15151 (antibody, V domains shown)
VH: QVQLVESGGGVVQPGRSLRLSCAASGFVFNSYGMHWVRQAPGKGLEWVAVLWYEGSKNYYADSVKGRFTISRDNSKNTLYLQMNSLRAEDTAVYYCARHGSGSFFGYYLDYWGQGTLVTVSS
VL: DIQMTQSPSSLSASVGDRVTITCRASHNINDFLNWYQQKPGKAPRLLIYAASSLQSGVPSRFSGSGSGTDFTLTISSLQPEDFATYYCQESYTTPPTFGQGTKLEIKR
B7: mAb15162 (antibody, V domains shown)
VH: EVQLVETGGGLIQPGGSLRLSCAASEFIVSRNYMSWVRQAPGKGLEWVSLIYSGGSTYYADSVKGRFTISRDNSKNILYLQMNSLRAEDTAVYYCARDRGGISDYWGQGTLVTVSS
VL: DIQMTQSPSSLSASVGDRVTITCQASQDINKYLNWFQQKPGKAPKLLIYDASNLETGVPSRFSGSGSGTDFTFTISSLQPEDIATYYCQQYDNLPRTFGQGTKLEIKR

Assays:
[1] = molecular target: T1, SARS-COV-2 RBD extracellular domain expressed with a C-terminal mouse IgG2a Fc (SARS-CoV-2); test: Biacore SPR, mAb captured on anti-hFc, 25 C
[2] = molecular target: T1, SARS-COV-2 RBD extracellular domain …; test: Biacore SPR, mAb captured on anti-hFc, 37 C

Row | Binder | Kd [1] [pM] | koff [1] [s⁻¹] | kon [1] [M⁻¹ s⁻¹] | t½ [1] [h] | Kd [2] [pM] | koff [2] [s⁻¹] | kon [2] [M⁻¹ s⁻¹] | t½ [2] [h]
1 | B1 | ≤ 29.5 | ≤ 1e-05 | 339000 | 19.2 | 91 | 2.41e-05 | 260000 | 8
2 | B2 | 56.9 | 2.12e-05 | 372000 | 9.09 | 51.8 | 9.4e-05 | 1.82e+06 | 2.05
3 | B3 | 129 | – | 301000 | 4.96 | 450 | 4.55e-05 | 100000 | 4.23
4 | B4 | 16 | 1.62e-05 | 1.02e+06 | 11.9 | 126 | 9.8e-05 | 781000 | 1.97
5 | B5 | ≤ 10.8 | ≤ 1e-05 | 930000 | 19.2 | 60.1 | 2.5e-05 | 416000 | 7.7
6 | B6 | 3.38 | 3.12e-05 | 9.24e+06 | 6.16 | 850 | 0.0031 | 3.7e+06 | 0.0617
7 | B7 | 179 | 0.00023 | 1.29e+06 | 0.837 | 500 | 0.000101 | 200000 | 1.91
